# From patent US20240261333A1, “NOVEL TARGETS FOR ENHANCING ANTI-TUMOR IMMUNITY” (THE BROAD INSTITUTE, INC., priority 2021, published 2024)
# T1: B3GNT2 (Homo sapiens, UniProt Q9NY97)
# T1 construct: The respective ORFs of candidate genes [CD274 (NM_014143), MCL1 (NM_021960), JUNB (NM_002229), and B3GNT2 (NM_006577)] were synthesized; expressed in transfected cells; host or cells: A375 melanoma cells (lentiviral ORF overexpression)
# T1 sequence (Q9NY97 1-397): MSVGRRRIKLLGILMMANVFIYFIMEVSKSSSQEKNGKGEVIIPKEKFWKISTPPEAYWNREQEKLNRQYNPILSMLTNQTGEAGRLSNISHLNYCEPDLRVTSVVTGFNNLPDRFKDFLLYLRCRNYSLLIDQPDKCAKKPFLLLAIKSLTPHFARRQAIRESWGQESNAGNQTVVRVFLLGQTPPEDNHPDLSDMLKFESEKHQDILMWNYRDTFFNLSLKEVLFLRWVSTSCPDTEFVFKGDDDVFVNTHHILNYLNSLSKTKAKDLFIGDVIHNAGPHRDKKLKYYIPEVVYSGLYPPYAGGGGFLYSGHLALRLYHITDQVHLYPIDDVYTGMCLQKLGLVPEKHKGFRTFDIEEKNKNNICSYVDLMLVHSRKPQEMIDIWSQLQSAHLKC
# B1: MAP4 (protein, UniProt P27816 2-1152, looked up)
# Microtubule-associated …: ADLSLADALTEPSPDIEGEIKRDFIATLEAEAFDDVVGETVGKTDYIPLLDVDEKTGNSESKKKPCSETSQIEDTPSSKPTLLANGGHGVEGSDTTGSPTEFLEEKMAYQEYPNSQNWPEDTNFCFQPEQVVDPIQTDPFKMYHDDDLADLVFPSSATADTSIFAGQNDPLKDSYGMSPCNTAVVPQGWSVEALNSPHSESFVSPEAVAEPPQPTAVPLELAKEIEMASEERPPAQALEIMMGLKTTDMAPSKETEMALAKDMALATKTEVALAKDMESPTKLDVTLAKDMQPSMESDMALVKDMELPTEKEVALVKDVRWPTETDVSSAKNVVLPTETEVAPAKDVTLLKETERASPIKMDLAPSKDMGPPKENKKETERASPIKMDLAPSKDMGPPKENKIVPAKDLVLLSEIEVAQANDIISSTEISSAEKVALSSETEVALARDMTLPPETNVILTKDKALPLEAEVAPVKDMAQLPETEIAPAKDVAPSTVKEVGLLKDMSPLSETEMALGKDVTPPPETEVVLIKNVCLPPEMEVALTEDQVPALKTEAPLAKDGVLTLANNVTPAKDVPPLSETEATPVPIKDMEIAQTQKGISEDSHLESLQDVGQSAAPTFMISPETVTGTGKKCSLPAEEDSVLEKLGERKPCNSQPSELSSETSGIARPEEGRPVVSGTGNDITTPPNKELPPSPEKKTKPLATTQPAKTSTSKAKTQPTSLPKQPAPTTIGGLNKKPMSLASGLVPAAPPKRPAVASARPSILPSKDVKPKPIADAKAPEKRASPSKPASAPASRSGSKSTQTVAKTTTAAAVASTGPSSRSPSTLLPKKPTAIKTEGKPAEVKKMTAKSVPADLSRPKSTSTSSMKKTTTLSGTAPAAGVVPSRVKATPMPSRPSTTPFIDKKPTSAKPSSTTPRLSRLATNTSAPDLKNVRSKVGSTENIKHQPGGGRAKVEKKTEAAATTRKPESNAVTKTAGPIASAQKQPAGKVQIVSKKVSYSHIQSKCGSKDNIKHVPGGGNVQIQNKKVDISKVSSKCGSKANIKHKPGGGDVKIESQKLNFKEKAQAKVGSLDNVGHLPAGGAVKTEGGGSEAPLCPGPPAGEEPAISEAAPEAGAPTSASGLNGHPTLSGGGDQREAQTLDSQIQETSI
# B2: PDIA3 (protein)
# chain: SDVLELTDDNFESRISDTGSAGLMLVEFFAPWCGHCKRLAPEYEAAATRLKGIVPLAKVDCTANTNTCNKYGVSGYPTLKIFRDGEEAGAYDGPRTADGIVSHLKKQAGPASVPLRTEEEFKKFISDKDASIVGFFDDSFSEAHSEFLKAASNLRDNYRFAHTNVESLVNEYDDNGEGIILFRPSHLTNKFEDKTVAYTEQKMTSGKIKKFIQENIFGICPHMTEDNKDLIQGKDLLIAYYDVDYEKNAKGSNYWRNRVMMVAKKFLDAGHKLNFAVASRKTFSHELSDFGLESTAGEIPVVAIRTAKGEKFVMQEEFSRDGKALERFLQDYFDGNLKRYLKSEPIPESNDGPVKVVVAENFDEIVNNENKDVLIEFYAPWCGHCKNLEPKYKELGEKLSKDPNIVIAKMDATANDVPSPYEVRGFPTIYFSPANKKLNPKKYEGGRELSDFISYLQREATNPPVIQEEKPKKKKKAQEDL
# B3: GEMIN4 (protein)
# chain: MDLGPLNICEEMTILHGGFLLAEQLFHPKALAELTKSDWERVGRPIVEALREISSAAAHSQPFAWKKKALIIIWAKVLQPHPVTPSDTETRWQEDLFFSVGNMIPTINHTILFELLKSLEASGLFIQLLMALPTTICHAELERFLEHVTVDTSAEDVAFFLDVWWEVMKHKGHPQDPLLSQFSAMAHKYLPALDEFPHPPKRLRSDPDACPTMPLLAMLLRGLTQIQSRILGPGRKCCALANLADMLTVFALTEDDPQEVSATVYLDKLATVISVWNSDTQNPYHQQALAEKVKEAERDVSLTSLAKLPSETIFVGCEFLHHLLREWGEELQAVLRSSQGTSYDSYRLCDSLTSFSQNATLYLNRTSLSKEDRQVVSELAECVRDFLRKTSTVLKNRALEDITASIAMAVIQQKMDRHMEVCYIFASEKKWAFSDEWVACLGSNRALFRQPDLVLRLLETVIDVSTADRAIPESQIRQVIHLILECYADLSLPGKNKVLAGILRSWGRKGLSEKLLAYVEGFQEDLNTTFNQLTQSASEQGLAKAVASVARLVIVHPEVTVKKMCSLAVVNLGTHKFLAQILTAFPALRFVEEQGPNSSATFMVSCLKETVWMKFSTPKEEKQFLELLNCLMSPVKPQGIPVAALLEPDEVLKEFVLPFLRLDVEEVDLSLRIFIQTLEANACREEYWLQTCSPFPLLFSLCQLLDRFSKYWQLPKEKRCLSLDRKDLAIHILELLCEIVSANAETFSPDVWIKSLSWLHRKLEQLDWTVGLRLKSFFEGHFKCEVPATLFEICKLSEDEWTSQAHPGYGAGTGLLAWMECCCVSSGISERMLSLLVVDVGNPEEVRLFSKGFLVALVQVMPWCSPQEWQRLHQLTRRLLEKQLLHVPYSLEYIQFVPLLNLKPFAQELQLSVLFLRTFQFLCSHSCRDWLPLEGWNHVVKLLCGSLTRLLDSVRAIQAAGPWVQGPEQDLTQEALFVYTQVFCHALHIMAMLHPEVCEPLYVLALETLTCYETLSKTNPSVSSLLQRAHEQRFLKSIAEGIGPEERRQTLLQKMSSF
# B4: CHCHD3 (protein)
# chain: GGTTSTRRVTFEADENENITVVKGIRLSENVIDRMKESSPSGSKSQRYSGAYGASVSDEELKRRVAEELALEQAKKESEDQKRLKQAKELDRERAAANEQLTRAILRERICSEEERAKAKHLARQLEEKDRVLKKQDAFYKEQLARLEERSSEFYRVTTEQYQKAAEEVEAKFKRYESHPVCADLQAKILQCYRENTHQTLKCSALATQYMHCVNHAKQSMLEKGG
# B5: EMILIN1 (protein)
# chain: ASYPPRGFSLYTGSSGALSPGGPQAQIAPRPASRHRNWCAYVVTRTVSCVLEDGVETYVKYQPCAWGQPQCPQSIMYRRFLRPRYRVAYKTVTDMEWRCCQGYGGDDCAESPAPALGPASSTPRPLARPARPNLSGSSAGSPLSGLGGEGPGESEKVQQLEEQVQSLTKELQGLRGVLQGLSGRLAEDVQRAVETAFNGRQQPADAAARPGVHETLNEIQHQLQLLDTRVSTHDQELGHLNNHHGGSSSSGGSRAPAPASAPPGPSEELLRQLEQRLQESCSVCLAGLDGFRRQQQEDRERLRAMEKLLASVEERQRHLAGLAVGRRPPQECCSPELGRRLAELERRLDVVAGSVTVLSGRRGTELGGAAGQGGHPPGYTSLASRLSRLEDRFNSTLGPSEEQEESWPGAPGGLSHWLPAARGRLEQLGGLLANVSGELGGRLDLLEEQVAGAMQACGQLCSGAPGEQDSQVSEILSALERRVLDSEGQLRLVGSGLHTVEAAGEARQATLEGLQEVVGRLQDRVDAQDETAAEFTLRLNLTAARLGQLEGLLQAHGDEGCGACGGVQEELGRLRDGVERCSCPLLPPRGPGAGPGVGGPSRGPLDGFSVFGGSSGSALQALQGELSEVILSFSSLNDSLNELQTTVEGQGADLADLGATKDRIISEINRLQQEATEHATESEERFRGLEEGQAQAGQCPSLEGRLGRLEGVCERLDTVAGGLQGLREGLSRHVAGLWAGLRETNTTSQMQAALLEKLVGGQAGLGRRLGALNSSLQLLEDRLHQLSLKDLTGPAGEAGPPGPPGLQGPPGPAGPPGSPGKDGQEGPIGPPGPQGEQGVEGAPAAPVPQVAFSAALSLPRSEPGTVPFDRVLLNDGGYYDPETGVFTAPLAGRYLLSAVLTGHRHEKVEAVLSRSNQGVARVDSGGYEPEGLENKPVAESQPSPGTLGVFSLILPLQAGDTVCVDLVMGQLAHSEEPLTIFSGALLYGDPELEHA
# B6: PPFIBP1 (protein)
# chain: MMSDASDMLAAALEQMDGIIAGSKALEYSNGIFDCQSPTSPFMGSLRALHLVEDLRGLLEMMETDEKEGLRCQIPDSTAETLVEWLQSQMTNGHLPGNGDVYQERLARLENDKESLVLQVSVLTDQVEAQGEKIRDLEFCLEEHREKVNATEEMLQQELLSRTSLETQKLDLMAEISNLKLKLTAVEKDRLDYEDKFRDTEGLIQEINDLRLKVSEMDSERLQYEKKLKSTKDELASLKEQLEEKESEVKRLQEKLVCKMKGEGVEIVDRDIEVQKMKKAVESLMAANEEKDRKIEDLRQCLNRYKKMQDTVVLAQGKDGEYEELLNSSSISSLLDAQGFSDLEKSPSPTPVMGSPSCDPFNTSVPEEFHTTILQVSIPSLLPATVSMETSEKSKLTPKPETSFEENDGNIILGATVDTQLCDKLLTSSLQKSSSLGNLKKETSDGEKETIQKTSEDRAPAESRPFGTLPPRPPGQDTSMDDNPFGTRKVRSSFGRGFFKIKSNKRTASAPNLAETEKETAEHLDLAGASSRPKDSQRNSPFQIPPPSPDSKKKSRGIMKLFGKLRRSQSTTFNPDDMSEPEFKRGGTRATAGPRLGWSRDLGQSNSDLDMPFAKWTKEQVCNWLMEQGLGSYLNSGKHWIASGQTLLQASQQDLEKELGIKHSLHRKKLQLALQALGSEEETNHGKLDFNWVTRWLDDIGLPQYKTQFDEGRVDGRMLHYMTVDDLLSLKVVSVLHHLSIKRAIQVLRINNFEPNCLRRRPSDENTIAPSEVQKWTNHRVMEWLRSVDLAEYAPNLRGSGVHGGLMVLEPRFNVETMAQLLNIPPNKTLLRRHLATHFNLLIGAEAQHQKRDAMELPDYVLLTATAKVKPKKLAFSNFGNLRKKKQEDGEEYVCPMELGQASGSASKKGFKPGLDMRLYEEDDLDRLEQMEDSEGTVRQIGAFSEGINNLTHMLKEDDMFKDFAARSPSASITDEDSNV
# Target: T1, B3GNT2
# Test: Co-IP of FLAG-tagged B3GNT2 followed by mass spectrometry
# Format: cell-based
# Parameters: C-term IgG / C-term flag: unit not given here
# Summary of the method: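 FLAG-tagged B3GNT2 immunoprecipitated from cell lysate (HEPES, 1% Triton X-100, 150 mM NaCl) with anti-FLAG versus […], overnight at 4° C, then captured on Protein A/G magnetic beads for 4 h. Two biological replicates per condition. Peptides fractionated and analyzed by nano-LC on an Orbitrap Elite in data-dependent mode.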
# [1] = Co-IP followed by mass spectrometry of B3GNT2, C-term tag, FLAG pull-down
# [2] = Co-IP followed by mass spectrometry of B3GNT2, C-term tag, IgG pull-down
# [3] = Co-IP followed by mass spectrometry of B3GNT2, N-term tag, FLAG pull-down
# [4] = Co-IP followed by mass spectrometry of B3GNT2, N-term tag, IgG pull-down
Molecule,C-term flag [1],C-term IgG [2],N-term FLAG [3],N-term IgG [4],"C-term flag (Co-IP with FLAG antibody, C-terminally FLAG-tagged B3GNT2, mass spectrometry count, unit not given)","N-term FLAG (Co-IP with FLAG antibody, N-terminally FLAG-tagged B3GNT2, mass spectrometry count, unit not given)","C-term IgG (Co-IP with IgG control antibody, C-terminally FLAG-tagged B3GNT2, mass spectrometry count, unit not given)","N-term IgG (Co-IP with IgG control antibody, N-terminally FLAG-tagged B3GNT2, mass spectrometry count, unit not given)"
B1,5,0,0,0,–,–,–,–
B2,–,–,–,–,24,14,0,0
B3,5,0,0,0,–,–,–,–
B4,15,11,16,10,–,–,–,–
B5,3,0,2,0,–,–,–,–
B6,3,0,2,0,–,–,–,–
